Measured values as given in paper PMC8588036, “Molecular Cloning and Identification of NADPH Cytochrome P450 Reductase from Panax ginseng” (Molecules, 2021).

Assays:
[1] = test system: NC(=O)C1=CN([C@@H]2O[C@H](COP(=O)(O)OP(=O)(O)OC[C@H]3O[C@@H](n4cnc5c(N)ncnc54)[C@H](OP(=O)(O)O)[C@@H]3O)[C@@H](O)[C@H]2O)C=CC1; assay: purified protein; settings: 100 μmol/L cytochrome c, NADPH 0-400 μmol/L, 50 mmol/L Tris HCl pH 7.4, 0.1 mmol/L EDTA, 25 °C
[2] = test system: T1, NC(=O)C1=CN([C@@H]2O[C@H](COP(=O)(O)OP(=O)(O)OC[C@H]3O[C@@H](n4cnc5c(N)ncnc54)[C@H](OP(=O)(O)O)[C@@H]3O)[C@@H](O)[C@H]2O)C=CC1; assay: cytochrome c reduction, A550; format: biochemical, Panax ginseng; settings: 100 μmol/L cytochrome c, NADPH 0-400 μmol/L, 50 mmol/L Tris HCl pH 7.4, 0.1 mmol/L EDTA, 25 °C
T1 construct: pET28a, His-tag, E. coli BL21(DE3), Ni-NTA

PgCPR2 (Panax ginseng), sequence (chain, as listed by the source): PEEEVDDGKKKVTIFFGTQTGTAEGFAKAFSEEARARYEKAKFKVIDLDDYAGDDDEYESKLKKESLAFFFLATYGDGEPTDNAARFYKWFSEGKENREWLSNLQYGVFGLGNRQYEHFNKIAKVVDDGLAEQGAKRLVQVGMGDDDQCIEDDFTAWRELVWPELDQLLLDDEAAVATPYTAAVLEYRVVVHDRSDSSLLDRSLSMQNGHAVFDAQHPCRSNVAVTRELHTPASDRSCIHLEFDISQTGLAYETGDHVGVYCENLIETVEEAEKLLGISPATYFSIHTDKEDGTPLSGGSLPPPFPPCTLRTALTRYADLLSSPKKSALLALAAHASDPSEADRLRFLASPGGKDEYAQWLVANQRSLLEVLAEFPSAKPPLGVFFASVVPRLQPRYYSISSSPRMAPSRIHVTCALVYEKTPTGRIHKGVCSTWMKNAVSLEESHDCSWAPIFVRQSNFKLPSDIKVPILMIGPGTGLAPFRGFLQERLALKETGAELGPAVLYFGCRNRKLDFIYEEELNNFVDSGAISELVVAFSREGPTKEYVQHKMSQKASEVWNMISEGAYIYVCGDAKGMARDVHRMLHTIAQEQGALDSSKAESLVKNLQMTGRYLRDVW
PgCPR1 (Panax ginseng), sequence (chain, as listed by the source): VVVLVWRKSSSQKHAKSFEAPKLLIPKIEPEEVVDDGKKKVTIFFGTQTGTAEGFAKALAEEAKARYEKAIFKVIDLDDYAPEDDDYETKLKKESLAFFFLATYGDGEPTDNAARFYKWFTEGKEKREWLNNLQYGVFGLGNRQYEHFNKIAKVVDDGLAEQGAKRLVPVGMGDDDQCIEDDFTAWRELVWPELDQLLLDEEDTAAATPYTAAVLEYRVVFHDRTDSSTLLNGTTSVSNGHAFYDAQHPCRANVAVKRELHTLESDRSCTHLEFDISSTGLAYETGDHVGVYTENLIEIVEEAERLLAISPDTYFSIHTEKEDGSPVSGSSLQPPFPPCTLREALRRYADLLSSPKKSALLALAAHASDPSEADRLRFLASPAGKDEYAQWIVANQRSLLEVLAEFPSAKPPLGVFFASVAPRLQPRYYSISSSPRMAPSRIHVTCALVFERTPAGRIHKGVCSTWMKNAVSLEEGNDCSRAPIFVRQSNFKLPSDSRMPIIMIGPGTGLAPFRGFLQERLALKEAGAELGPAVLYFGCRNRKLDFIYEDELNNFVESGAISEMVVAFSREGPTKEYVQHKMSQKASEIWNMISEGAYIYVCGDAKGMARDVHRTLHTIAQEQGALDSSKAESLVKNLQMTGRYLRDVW

| Substance | Km [1] | kcat [1] | kcat/Km [1] | Km [2] | kcat [2] | kcat/Km [2] |
| --- | --- | --- | --- | --- | --- | --- |
| AtCPR1 (Arabidopsis thaliana) | 84.61 ± 8.548 µM | 2.74 s⁻¹ | 32400 M⁻¹ s⁻¹ |  |  |  |
| PgCPR1 (Panax ginseng) |  |  |  | 62.9 ± 5.807 µM | 3.32 ± 0.0968 s⁻¹ | 52800 M⁻¹ s⁻¹ |
| PgCPR2 (Panax ginseng) |  |  |  | 85.27 ± 6.07 µM | 3.38 ± 0.087 s⁻¹ | 39600 M⁻¹ s⁻¹ |
